Assay results taken from the RNAGym collection of RNA variant scans (doi:10.1073/pnas.2313332121).

B1: TPR t1 (parent)
chain: GACCAAUCUGCCCUCAGAGCUCGAGAACAUCUUCGGAUGCAGAGGAGGCAGGCUUCGGUGGCGCGAUAGCGCCAACGUCCUCAACCUCCAAUGCAUCCCACCACAUGAUGAUGCCUGAAGAGCCUUGGUUUUUUG

Variants of: B1
Assay: polymerase ribozyme fitness, log enrichment relative to wild type (log ratio); higher = more active; in vitro selection for triplet polymerase activity
Outline: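 To select mutant libraries of each subunit of a heterodimeric triplet polymerase ribozyme, built by PCR and transcribed, each was annealed with a biotinylated primer, partner subunit and triplets, then incubated frozen at −7 °C. Extended constructs were gel-excised, captured on streptavidin beads and amplified by RT-PCR, in one round carried out in triplicate. Illumina sequencing of input and output libraries kept genotypes with ≥10 input reads and ≥1 read per output. Fitness is the base-2 logarithm of genotype enrichment relative to wild-type enrichment, from inverse-variance-weighted replicate averages.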

Row | Variant | polymerase ribozyme fitness (log ratio)
1 | U9C C73U | 0.362
2 | C8U U14A | -0.398
3 | U9A C62A C86A C98U | -2.77
4 | U9C C11G G36U U116A C123G | -1.92
5 | U9C | 0.614
6 | U9A | 0.517
7 | U9C C49A C53U C88U U133A | -0.445
8 | C8U G63U A90U G113C | -3.6
9 | U9A C70U A74G C104A C123A | -3.22
10 | C8U U9G G60A | -0.0864
11 | U9A A26U C101G | -4.48
12 | U9A G47A U96G | -0.976
13 | U9A G93A C115U | -1.19
14 | C8U U106A G127U | 0.137
15 | U9C G10C C62G C72A A111G U125C | -4.6
16 | U9A G17U C62A C88U A91G U132A | -4.47
17 | C8U G93A | 0.108
18 | C8U G39C G63A U92G | -3.5
19 | C8U G47A | -0.477
20 | U9A A46U U59C U78A C89G U109A | -7.76
21 | U9A C101G | -1.55

Row | Variant | polymerase ribozyme fitness (log ratio)
22 | U9A C62G C97U U109G | -7.26
23 | U9C G47C G71U U132C | -2.26
24 | U9A G48C C86A C101A C114U C124U | -2.84
25 | U9A G77U U131A | 0.362
26 | U9A U106A | 0.641
27 | U9A G47U C79A A83C | -3.93
28 | U9C C40G G63U G69U C79G C82U A118U A119G G135U | -4.3
29 | U9C A37U | 0.172
30 | U9C C15G A43U U131C | -2.2
31 | U9A C20G C72U U96G C124U | -3.12
32 | U9A A119G | 0.948
33 | U9A C40G G113A | -0.901
34 | U9C A16U C88A A95C A111U | -5.45
35 | U9A C53A U87G | 0.985
36 | C8U G36U G60C | -1.66
37 | U9C C56A A83C | 0.00737
38 | U9A U21G A41U G45A U130G | -4.18
39 | U9C C40A G42C C73A C101A G122A U130A | -1.67
40 | U9C G35U C101A | -5.93
41 | U9C G47C G71U | -2.13
42 | C8U G44A G60U A121C G122U | -1.02

Row | Variant | polymerase ribozyme fitness (log ratio)
43 | C8U G36C G45U C64U C101A | -1.02
44 | U9A A46C A50C G61U C82G | -1.26
45 | U9C C49U | 0.0306
46 | U9A C12U | -0.242
47 | U9A U21A G45C C70A C82U U116G U132C G135C | -1.83
48 | U9C C40A U130A | -0.631
49 | U9A C12U G120U G128C | 0.498
50 | C8U G44A G69C C89U A118U C124G G127C | 0.163
51 | U9A C13A | 0.483
52 | U9A C13U | 0.446
53 | U9C C73A A74U | 0.19
54 | U9A U96A C124U | 1.28
55 | U9C G36C A50U C70A A75U U106A | -6.28
56 | U9A C34G C76G C85G | -6.38
57 | C8U G63C | 0.00815
58 | C8U G63A | 0.00664
59 | U9A C40A G61U G93C C94G C124U | -0.833
60 | C8U U9C C12U G17A G19A G44U C114G | -5.67
61 | U9A A46U A74C C88G | -2.48
62 | U9A C62U G63A A95C A103G U109A | -7.15
63 | U9A G52U C72A C88U C124A | 1.2

Row | Variant | polymerase ribozyme fitness (log ratio)
64 | U9C C11U G60C G71U U133A | -4.61
65 | U9C C11U | 0.404
66 | U9A C62G C79G C115U | -4.57
67 | U9A G93A U106C | -0.115
68 | C8U G110A | 0.177
69 | U9A C31G G61U A83C G107C | -1.25
70 | U9A A18U C64U U92C | -3
71 | C8U G48A | -0.239
72 | U9A G61A A100U | 0.389
73 | U9C C56G C88G | -1.64
74 | U9A G39U G45U | -0.618
75 | C8U G45A G52C C123G | -0.41
76 | U9A A46G C53G C72U C82A G113U | -1.9
77 | U9C C12G C53G C62U | -0.499
78 | U9C C12G C13G A50C C70U C76A U78A C85U | -2.55
79 | U9A G45U G113U G122U | -2.61
80 | U9A C62G C94U | -0.686
81 | U9C C86A C99A | -5.49
82 | U9C A43G G61A C89U | -1.55
83 | U9C G10A G52A G63U | -2.31
